B1: TbGH2 (Thermus brockianus) (protein)
chain: RLKSALFLAHPAGEPEALPEEGWREVALPHQWTLEGLEAEVGWYRLTLPEGGPRRFLRSLGDYYQEAWLEGRFLGRHEGYFFPWLLELPPGKELYLRVSAPKEPLGQWPRFKRQIKGVLGQHDCRPGGVSPRGQERGTGGLWGGVEVVFREEVALLHLTHRLHPRPGGWRLLVRLLLDAPRPFAERVLLRLSPENFPGEAWTQEVGLRGDAGRGYREVVWDLPEMPLWEVWERGFPHLFRLEAELAQAQVSAPLGFRTVAWDEEGWLLLNGRRLFLRGTNHIPTQWLAAYSQALAEKDVALLKEAGLNAVRVHAHLTHPVFYEVCDREGVLVWQDFPLQWGYAPDEAFAEEAVRQVRAMVEHYGAHPSIYLWCAQNEPTHNRHALGPLLAAELRAQDPSRLVKEASDFREHPYPGWYWGHFRDFLALPGAPLPSEFGAQALPRAELLRRVLGEAAWPPKWEVWAYHNFQPHETFRVAGVEMGTSLESFVENSQAYQARLLSFAIHVYRRAKGKVVGYFQFLFAEPWEGITWAVLDVERIPKKGFHALKEASSPVLLSLVPYRERLEVGGVPLWEAWLVNDLERPLTLRVALALEGPVALPLWEGEVAVAGGEVRRFFSLGELWESPWEAQERLMRVAEALRRLPPGRYRLVGEAWEGERLWSRQVVELVYLEPLVPPGEAW

Key:
Assay in all cases: purified protein
[1] = tested on: T1, O=[N+]([O-])c1ccc(O[C@@H]2O[C@H](CO)[C@H](O)[C@H](O)[C@H]2O)cc1; format: biochemical, Thermus antranikianii; details: 90°C, 20 mM citrate buffer pH 6.5, 0-25 mM substrate, 10 min
T1 construct: recombinant, pQE-80L (His-tag vector) in E. coli BL21 Star(DE3); heat precipitation and Ni-NTA

[2] = tested on: T2, O=[N+]([O-])c1ccc(O[C@@H]2O[C@H](CO)[C@@H](O)[C@H](O)[C@H]2O)cc1; format: biochemical, Thermus antranikianii; details: 90°C, 20 mM citrate buffer pH 6.5, 0-10 mM substrate, 10 min
T2 construct: recombinant, pQE-80L (His-tag vector) in E. coli BL21 Star(DE3); heat precipitation and Ni-NTA

[3] = substrate: O=[N+]([O-])c1ccc(O[C@@H]2O[C@H](CO)[C@@H](O)[C@H](O)[C@H]2O)cc1; details: 90°C, 20 mM maleate buffer pH 6.5, 0-10 mM substrate, 10 min
[4] = substrate: O=[N+]([O-])c1ccc(O[C@@H]2O[C@H](CO)[C@H](O)[C@H](O)[C@H]2O)cc1; details: 90°C, 20 mM maleate buffer pH 6.5, 0-25 mM substrate, 10 min

Row | Molecule | Km [1] [µM] | Vmax [1] [µmol/min/mg] | kcat [1] [s⁻¹] | kcat/Km [1] [M⁻¹ s⁻¹] | Km [2] [µM] | Vmax [2] [µmol/min/mg] | kcat [2] [s⁻¹] | kcat/Km [2] [M⁻¹ s⁻¹] | Km [3] [µM] | Vmax [3] [µmol/min/mg] | kcat [3] [s⁻¹] | kcat/Km [3] [M⁻¹ s⁻¹] | Km [4] [µM] | Vmax [4] [µmol/min/mg] | kcat [4] [s⁻¹] | kcat/Km [4] [M⁻¹ s⁻¹]
1 | TaGH2 (Thermus antranikianii) | 2200 ± 20 | 2615 ± 3 | 14000 | 6.36e+06 | 730 ± 30 | 4028 ± 21 | 21600 | 2.95e+07 | – | – | – | – | – | – | – | –
2 | B1 | – | – | – | – | – | – | – | – | 500 ± 20 | 778 | 3900 | 7.8e+06 | 3560 ± 70 | 1333 ± 11 | 6680 | 1.88e+06
